EP4810515A1 (Shanghai Haiju Biological Technology Co., Ltd., dated 2026)
Substitutions are numbered along the chain they refer to. Each block holds one binder with its values, some of them ahead of it.

Key:
[1] = target: T1, mouse GDF15 recombinant protein (Kactus, GDF-MM215) (mouse, UniProt Q9Z0J7 189-303, limits assumed); test: ELISA, coated mGDF-15.hFc
T1 construct: also called mGDF-15.hFc; murine GDF15; not shown: human Fc (hFc)
T1 sequence (looked up): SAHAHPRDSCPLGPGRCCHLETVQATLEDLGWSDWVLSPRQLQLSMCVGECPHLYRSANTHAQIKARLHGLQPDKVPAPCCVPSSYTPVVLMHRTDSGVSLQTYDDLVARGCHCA

[2] = target: T2, human GDF15 recombinant protein (ACRO, GD5-H5149) (human, UniProt Q99988 197-308); test: cell-based or functional assay
T2 sequence (looked up): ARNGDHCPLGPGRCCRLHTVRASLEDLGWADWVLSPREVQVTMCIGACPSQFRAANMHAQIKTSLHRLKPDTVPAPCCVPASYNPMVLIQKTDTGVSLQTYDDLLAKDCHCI

[3] = target: T2, human GDF15 recombinant protein (ACRO, …); test: ELISA, coated hGDF-15.His
[4] = target: T3, cynomolgus monkey GDF15 recombinant protein (Kactus, GDF-CM215) (cynomolgus monkey, UniProt G7PWZ3 197-308, limits assumed); test: ELISA, coated cynoGDF-15.hFc
T3 construct: also called cynoGDF-15.hFc; cynoGDF15; not shown: human Fc (hFc)
T3 sequence (looked up): T2 sequence (looked up) with H6R, R21H, A54E, T63M, S64N, I112V

[5] = target: T4, GDF15 protein (R&D, 8146-GD) (UniProt Q99988 197-308); test: SPR Biacore T200, antibody captured by anti-hFc on CM5, GDF15 as analyte, 1:1 model
T4 construct: analyte of the SPR assay
T4 sequence (looked up): T2 sequence (looked up)

[6] = target: T2, human GDF15 recombinant protein (ACRO, …); test: cell-based or functional assay; remark: listed apart in the source

EC50 [1]: 120 pM
IC50, luciferase reporter gene cell strain (mGFRAL/RET HEK293) with hGDF15 [2]: 3450 pM
EC50 [3]: 3.94 pM
EC50 [4]: 92.9 pM
B2: G2-CH5 (antibody, human IgG1, kappa, V domains shown)
VH: EVLLQQSGPELVKPGASVKIACKASGYTLTDYNLNWVKQSHGKSLEWIGDLNPYNGGIIYNQKFKGKATLTVDKSSSTAYMELRSLTSEDIAVYYCAREGRGGAWFDSWGQGTLVTVSA
VL: DIQMTQSSSSFSVSLGDRVTITCKASEDIYHRLAWYQQKPGNAPRLLISGATSLETGIPSRFSGSGSGKDYALSITSLQTEDVGTYYCQQYWSPPFTFGSGTKLEIKR
notes: chimeric: murine variable regions on human IgG1 constant region mutant (LALAGA, -K)

EC50 [1]: 220 pM
IC50, luciferase reporter gene cell strain (mGFRAL/RET HEK293) with hGDF15 [2]: 11700 pM
EC50 [3]: 3.82 pM
EC50 [4]: 65.4 pM
B4: G2-CH13 (antibody, human IgG1, kappa, V domains shown)
VH: EVLLQQSGPELVKPGASVKITCKASGYTFTDYNMNWVKQSHGKSLEWIGDINPYNGGIIYNQKFRGKATLTIDKSSSTAYMELRSLTSEDTAVYYCAREVRRGSFFDYWGQGTTLTVSS
VL: DIQMTQSPASLSVSVGETVTITCRASENIYSNLAWYQQKQGKSPQLLVYAATDLADGVPSRFSGSGSGTQYSLKINSLQSEDFGNYHCQLFWGTPTFGGGTKLEIKR
notes: as for B2

Kd [5]: 24.4 pM
koff [5]: 0.000169 s⁻¹
kon [5]: 6.94e+06 M⁻¹ s⁻¹
IC50, reporter gene cell strain (GFRAL/RET) [6]: 36 pM
B7: G2-H5-H1.2L1-hIgG1(LALAGA,-K) (antibody, V domains shown)
VH: EVQLVQSGAEVKKPGASVKVSCKASGYTFTDYNLNWVRQATGQGLEWMGDLNPYNQGIIYNQKFKGRVTMTVDTSISTAYMELSSLRSEDTAVYYCAREGRGGAWFDSWGQGTLVTVSS
VL: DIQMTQSPSSLSASVGDRVTITCKASEDIYHRLAWYQQKPGKAPKLLIYGATSLETGVPSRFSGSGSGTDFTFTISSLQPEDIATYYCQQYWSPPFTFGGGTKVEIKR
notes: humanized from G2-CH5-HP2

Kd [5]: 33.9 pM
koff [5]: 0.000359 s⁻¹
kon [5]: 1.06e+07 M⁻¹ s⁻¹
IC50, reporter gene cell strain (GFRAL/RET) [6]: 64 pM
B10: G2-H5-H3.2L3-hIgG1(LALAGA,-K) (antibody, V domains shown)
VH: B7 VH with M48I, V68A, M70L, T74K
VL: B7 VL with Y49S, F71Y
notes: humanized from G2-CH5-HP2

Kd [5]: 22.1 pM
koff [5]: 0.000175 s⁻¹
kon [5]: 7.9e+06 M⁻¹ s⁻¹
IC50, reporter gene cell strain (GFRAL/RET) [6]: 39 pM
B11: G2-H5-H3.2L4-hIgG1(LALAGA,-K) (antibody, V domains shown)
VH: B7 VH with M48I, V68A, M70L, T74K
VL: B7 VL with Y49S, V58I, F71Y
notes: humanized from G2-CH5-HP2

Kd [5]: 24.5 pM
koff [5]: 0.000173 s⁻¹
kon [5]: 7.03e+06 M⁻¹ s⁻¹
IC50, reporter gene cell strain (GFRAL/RET) [6]: 68 pM
B15: G2-H5-H3.2L1-hIgG1(LALAGA,-K) (antibody, V domains shown)
VH: B7 VH with M48I, V68A, M70L, T74K
VL: B7 VL
notes: humanized from G2-CH5-HP2

Kd [5]: 25.1 pM
koff [5]: 0.000193 s⁻¹
kon [5]: 7.68e+06 M⁻¹ s⁻¹
IC50, reporter gene cell strain (GFRAL/RET) [6]: 49 pM
B17: G2-H5-H4.2L3-hIgG1(LALAGA,-K) (antibody, V domains shown)
VH: B7 VH with F29L, M48I, V68A, M70L, D73N, T74K
VL: B7 VL with Y49S, F71Y
notes: humanized from G2-CH5-HP2

Kd [5]: 21 pM
koff [5]: 0.000231 s⁻¹
kon [5]: 1.1e+07 M⁻¹ s⁻¹
IC50, reporter gene cell strain (GFRAL/RET) [6]: 48 pM
B21: G2-H5-H2.2L4-hIgG1(LALAGA,-K) (antibody, V domains shown)
VH: B7 VH with M70L, T74K
VL: B7 VL with Y49S, V58I, F71Y
notes: humanized from G2-CH5-HP2

Further lines, the binder ahead of its results:

B1: G2-CH14 (antibody, human IgG1, kappa, V domains shown)
VH: QVTLKESGPGILQPSQTLSLTCSFSGFSLSTSGMGVSWIRQPSGKGLEWLALIYWDDDKRYNPSLKSRLTISKDASSNQVFLKITSVDTADTATYYCIQSPWDWFAYWGQGTLVTVSA
VL: EIVLTQSPALMAASPGEKVTITCSVSSSISSSNLHWYQQKSETSPKPWIYGTSNLASGVPVRFSGSGSGTSYSLTISSMEAEDAATYYCQQWSSYPLTFGAGTKLELKR
notes: as for B2
EC50 [1]: 760 pM
IC50, luciferase reporter gene cell strain (mGFRAL/RET HEK293) with hGDF15 [2]: 200 pM
EC50 [3]: 6.63 pM
EC50 [4]: 72.1 pM

B3: G2-CH12 (antibody, human IgG1, kappa, V domains shown)
VH: QVQLQQSGAELVKPGASVKLSCKASGYTFTNYDINWVRQRPEQGLEWIGWIFPGDGSTKYNEKFKDKATLTTDTSSSTAYMQLIRLTSEDSAVYFCARILYWGQGTTLTVSS
VL: DNKMTQSPSSMYASLGERVTITCKASQDINSYLSWFQQKPGKSPKTLIYRANKLVDGVPSRFSGSGSGQDYSLTISSLEYEDMGIYHCLQYDEFPYTFGGGTKLEIKR
notes: as for B2
EC50 [1]: 5640 pM
IC50, luciferase reporter gene cell strain (mGFRAL/RET HEK293) with hGDF15 [2]: 6800 pM
EC50 [3]: 10.6 pM
EC50 [4]: 211 pM

B5: G2-CH1 (antibody, human IgG1, kappa, V domains shown)
VH: QVTLKESGPGILQPSQTLSLTCSFSGFSLSTYGIGVGWIRQPSGKGLEWLAHIWWNNNKYFNTALKSRLTISKDTSNNQVFLKIASVDTADSATYYCARMGYDIMDYWGQGTSVTVSS
VL: DIVMTQSHKFMSTSVGDRVSITCKASQDVNTAVAWYQQKPGQSPKFLIYSSSYRYTGVPDRFTGSGSGTDFTFTISSVQAEDLAVYYCQQHYSTPWTFGGGTKLEIKR
notes: as for B2
EC50 [1]: 170 pM
IC50, luciferase reporter gene cell strain (mGFRAL/RET HEK293) with hGDF15 [2]: 3750 pM
EC50 [3]: 3.87 pM
EC50 [4]: 86 pM

B6: G2-H5-H2.2L2-hIgG1(LALAGA,-K) (antibody, V domains shown)
VH: B7 VH with M70L, T74K
VL: B7 VL with F71Y
notes: humanized from G2-CH5-HP2
Kd [5]: 17.8 pM
koff [5]: 0.000145 s⁻¹
kon [5]: 8.11e+06 M⁻¹ s⁻¹
IC50, reporter gene cell strain (GFRAL/RET) [6]: 49 pM

B8: G2-H5-H4.2L2-hIgG1(LALAGA,-K) (antibody, V domains shown)
VH: B7 VH with F29L, M48I, V68A, M70L, D73N, T74K
VL: B7 VL with F71Y
notes: humanized from G2-CH5-HP2
Kd [5]: 27.3 pM
koff [5]: 0.000239 s⁻¹
kon [5]: 8.75e+06 M⁻¹ s⁻¹
IC50, reporter gene cell strain (GFRAL/RET) [6]: 59 pM

B9: G2-H5-H3.2L2-hIgG1(LALAGA,-K) (antibody, V domains shown)
VH: B7 VH with M48I, V68A, M70L, T74K
VL: B7 VL with F71Y
notes: humanized from G2-CH5-HP2
Kd [5]: 32.7 pM
koff [5]: 0.000265 s⁻¹
kon [5]: 8.1e+06 M⁻¹ s⁻¹
IC50, reporter gene cell strain (GFRAL/RET) [6]: 41 pM

B12: G2-H5-H2.2L3-hIgG1(LALAGA,-K) (antibody, V domains shown)
VH: B7 VH with M70L, T74K
VL: B7 VL with Y49S, F71Y
notes: humanized from G2-CH5-HP2
Kd [5]: 33.6 pM
koff [5]: 0.000284 s⁻¹
kon [5]: 8.46e+06 M⁻¹ s⁻¹
IC50, reporter gene cell strain (GFRAL/RET) [6]: 48 pM

B13: G2-H5-H1.2L4-hIgG1(LALAGA,-K) (antibody, V domains shown)
VH: B7 VH
VL: B7 VL with Y49S, V58I, F71Y
notes: humanized from G2-CH5-HP2
Kd [5]: 24.1 pM
koff [5]: 0.000201 s⁻¹
kon [5]: 8.36e+06 M⁻¹ s⁻¹
IC50, reporter gene cell strain (GFRAL/RET) [6]: 53 pM

B14: G2-H5-H1.2L3-hIgG1(LALAGA,-K) (antibody, V domains shown)
VH: B7 VH
VL: B7 VL with Y49S, F71Y
notes: humanized from G2-CH5-HP2
Kd [5]: 19.7 pM
koff [5]: 0.000185 s⁻¹
kon [5]: 9.37e+06 M⁻¹ s⁻¹
IC50, reporter gene cell strain (GFRAL/RET) [6]: 69 pM

B16: G2-H5-H2.2L1-hIgG1(LALAGA, -K) (antibody, V domains shown)
VH: B7 VH with M70L, T74K
VL: B7 VL
notes: humanized from G2-CH5-HP2
Kd [5]: 22.9 pM
koff [5]: 0.000189 s⁻¹
kon [5]: 8.26e+06 M⁻¹ s⁻¹
IC50, reporter gene cell strain (GFRAL/RET) [6]: 55 pM

B18: G2-H5-H1.2L2-hIgG1(LALAGA,-K) (antibody, V domains shown)
VH: B7 VH
VL: B7 VL with F71Y
notes: humanized from G2-CH5-HP2
Kd [5]: 14.5 pM
koff [5]: 0.000134 s⁻¹
kon [5]: 9.19e+06 M⁻¹ s⁻¹
IC50, reporter gene cell strain (GFRAL/RET) [6]: 46 pM

B19: G2-H5-H4.2L4-hIgG1(LALAGA,-K) (antibody, V domains shown)
VH: B7 VH with F29L, M48I, V68A, M70L, D73N, T74K
VL: B7 VL with Y49S, V58I, F71Y
notes: humanized from G2-CH5-HP2
Kd [5]: 34.9 pM
koff [5]: 0.00026 s⁻¹
kon [5]: 7.44e+06 M⁻¹ s⁻¹
IC50, reporter gene cell strain (GFRAL/RET) [6]: 81 pM

B20: G2-H5-H4.2L1-hIgG1(LALAGA,-K) (antibody, V domains shown)
VH: B7 VH with F29L, M48I, V68A, M70L, D73N, T74K
VL: B7 VL
notes: humanized from G2-CH5-HP2
Kd [5]: 44.2 pM
koff [5]: 0.000278 s⁻¹
kon [5]: 6.28e+06 M⁻¹ s⁻¹
IC50, reporter gene cell strain (GFRAL/RET) [6]: 87 pM

B22: G2-CH16 (antibody, human IgG1, kappa, V domains shown)
VH: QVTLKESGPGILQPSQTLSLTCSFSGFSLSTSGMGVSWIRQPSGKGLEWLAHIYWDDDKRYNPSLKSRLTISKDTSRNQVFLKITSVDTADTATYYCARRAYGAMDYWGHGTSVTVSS
VL: DIVMTQSQKFMSTSVGDRVSVTCKASQNVGTNIAWFQQKPGQSPEALIYSASYRYSGVPDRFTGSGSGTDFTLTISNVQSEDLAEYFCQQYNTYPHTFGGGTKLEIRR
notes: as for B2
EC50 [1]: 320 pM
IC50, luciferase reporter gene cell strain (mGFRAL/RET HEK293) with hGDF15 [2]: 450 pM
EC50 [3]: 4.76 pM
EC50 [4]: 90.9 pM

B23: G2-CH2 (antibody, human IgG1, kappa, V domains shown)
VH: QVTLKESGPGILQPSQTLSLTCSFSGFSLTISGMGVSWIRQPSGKGLEWLAHIYWDDDKRYNPSLKSRLTISKDTSSNQVFLEITSVDTADTATYYCVRAGWDFFDYWGQGTTLTVSS
VL: B22 VL with I33V, F36Y, E45K, A46G, T93S, H96W, R107K
notes: as for B2
EC50 [1]: 260 pM
IC50, luciferase reporter gene cell strain (mGFRAL/RET HEK293) with hGDF15 [2]: 3240 pM
EC50 [3]: 6.27 pM
EC50 [4]: 98 pM

B24: G2-CH3 (antibody, human IgG1, kappa, V domains shown)
VH: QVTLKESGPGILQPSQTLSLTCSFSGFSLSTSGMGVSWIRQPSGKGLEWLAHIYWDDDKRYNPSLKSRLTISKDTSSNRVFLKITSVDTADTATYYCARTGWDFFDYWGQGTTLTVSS
VL: B22 VL with I33V, F36Y, E45K, A46G, S76N, T93S, H96Y, R107K
notes: as for B2
EC50 [1]: 56500 pM
IC50, luciferase reporter gene cell strain (mGFRAL/RET HEK293) with hGDF15 [2]: 3550 pM
EC50 [3]: 4.53 pM
EC50 [4]: 102 pM
